The DeepSol protein solubility set

Assay: soluble on expression in E. coli; label from the status in PepcDB or PDB records
For “MTRQGWLVPCLSHGKDDQLQDELSELSKAYRKKFQTDLHTKSGDIIDPSGEFLYVYLDEENYRICRQSMVLVSNAPDGLIATTLEPYSDSYTFRQVREQLQAFSGDGGRINYSRNEHSSSYFLTIQASNEFKHVGAVRNTFGQSKDIWKRRMPDASQPLDYHLIAVGCSAFLPEAALDDVESDGAVLEHHHHHH”, the “soluble on expression in E. coli” value was “not soluble”. With “MSLTLTIEEIAKTKKLLVVSDFDGTIAGFSKDAYNVPINQKSLKAVKDLSQQADTDVVILSGRHLEGLKTVLDLGQYDITMVGSHGSEDSSRPRTLTPEEVARLAKIEADLEKIVDGIEGAFVEIKPFHRVLHFIRVSDKDKVQGILAQAAHVDSSGLKVTNGKSIIEYSISSTTKGTWLKEYVDRTEPTGVIFLGDDTTDEHGFKALENDDRALTVKVGEGDTAAKTRVDDVDNVGIFLEKLAYHRMQYAESVRLGEGHHHHHH” the “soluble on expression in E. coli” value was “soluble”. For “MGSDKIHHHHHHVTDHGFSFCAHAEQYAIIGSLSQLETSDNRDCDIRRPALNRCMAEKGTLRPEAAQIFQRLEALGLKQRELAQALGIEENKISKVRAGERQFKGAELLAAYEWLDQREAEAHMPRLSRVAAVGQQVIPATPVEGEVVQIQKLDLSLSMGPGTLIDGYVESELVSFDLGFVRLFTRAASDHLRLVTGIGDSMEPTLKWGDLILIDTTDRMLSKQDGIYWINLYGAAGIKRLRAIGPRTILVKSDNPGVDDQEVEAEDLRIEGRAIWATRGL”, the “soluble on expression in E. coli” value was “not soluble”. With “MSLYPKAYIDYLVEFHATRDYFECHEILEEYWKEDPPKKRKRYWVGFIQLAVALYHHRRQNTAGAKRLMANSIRILQAEHRAVEDLGLDHGRLLELMQSVYEQIETVSAYKSIILPIKDEKLEEACRIECRKKKYTWGQPSALSNIFLIDKHRLRDRTDVIREREKEIERRKKSRDEGHHHHHH” the “soluble on expression in E. coli” value was “soluble”. In the case of “MSLEVIKHDGPGRLGVIRLEPPVQTPALAGVDFTLSPFNSFFYPKDYKEYDFNLAPAIPLSYYTPDEIIKKAVKRLWEVDYSKFNAFYFPALKRTKHYEELFKIIEENDFDAIYIGNSKSMIKDYRGFVFTMRELREKFPNAVLITDLEPFFYPLAVYLGIDAFDIRSLKIYSYEGLGFTQFSPIIWDEPKEDPVEYAKKIIRLIRIAIHEGKLRYLVENFLPTSMNAGILRIADRENIEYLEKYTPVDDKTVVFISDYSMTRPEVYRWAKRVRERFEPPKDIELLLILPCSAKKPYSRSRSHTLYRSAVKEALGEKMHRVHELIVTSPYGVVPREWEWIAKYDIVVTGHWSEREVRLAGELLADVLEKYPDIPIIAHVEGGYREAVKLAMELSGRDVIFTAKGNSTTSRESLANLTKTLKEFDVREGHHHHHH”, the “soluble on expression in E. coli” value is reported as “not soluble”. For “MGHHHHHHSHMEEVLEAAEKIRSMEVRGAARIARFAAETLMKFAEKASDEKFDEEMRFAAETLLNTRPTAVSLYNAINYVMRYSGESVEEKRQSVIRRAREFINWVETAQRKIGEIGEKRIKDGYTVMTHCNSSAALSVIKKAHENGKRVEVIATESRPRWQGHLTVKQLREAGIEVTLIVDSAVRYFINEVDCVVVGADTITANGALINKIGTSQIALAAKEARVPFMVAAETYKFSPKTLFGELVVIEERDAREVAPEEILKLGVKVRNPAFDVTPRDYIDVIITEIGAIPPEMAYIVITERLGYAGIEEEEITLNSRHFD”, the “soluble on expression in E. coli” value was “not soluble”. For “MAVMSYIDAITLAMREEMERDEKVFVLGEDVGKKGGVFKATHGLYDQFGEDRALDTPLAESAIAGVAIGAAMYGMRPIAEMQFADFIMPAVNQIVSEAAKIRYRSNNDWTCPITVRAPFGGGVHGALYHSQSVEAMFANQPGLKIVIPSTPYDAKGLLKAAIRDEDPVLFFEHKRAYRLIKGEVPEDDYVLPIGKADVKREGDDITVITYGLCVHFALQAAEKLAQDGISAHILDLRTVYPLDKEAIIEAASKTGKVLLVTEDNKEGSIMSEVAAIIAENCLFDLDAPIARLAGPDVPAMPYAPTMEKFFMVNPDKVEKAMRELAEF”, the “soluble on expression in E. coli” value was “not soluble”. In the case of “MSYKIVIDSCGELLDEWKKDPRFESVALTLSVGGENIIDDENFDQASFLKKVADCPECPKSACPSPERYMRAFDCDADHVYAVTLSAELSGSYNSAVLGKSLLQEENPGKQIYVFNSKSASVGQSLIAMKIQECEEAGYSFEKVIETVEAYIADQHTFFVLDNLETLRKNGRLSKVKALVASALKIKPVMGSTDEGAICQLDQARGMNKALVKMAQNIVDKTKDSENKILAISHCNCRERAVLLKNALEERMPVKHIVILDTAGVSSMYANDGGVIVAV”, the “soluble on expression in E. coli” value is reported as “not soluble”. With “MKVIGINGSPRRAGNTSIMLKTIFEVLEDEGIETELIQVGGTNIKGCRACYACIKNKNSECSTKGDGFNEIFAKMVEADGMILGSPTYFADITPELKALIDRAGFVSRTNGQLFRHKVGASVVSLRRGGGIHAYDSINHLFQICQMFMVGSTYWNLGFGGRDGGEVVNDTEGMENMRDLGHSMAFLLKKLHNLEHHHHHH” the “soluble on expression in E. coli” value was “not soluble”. For “MTVDLTNVFQQIDGDYDNLKELLREAVAIQSVSGDPSKRDETIRMVHWMKEKLETIGTICELADLGTQELEGKTVKLPPVLLGTLGSDKNKKTLLVYGHLDVQPAAKSDGWDTEPFELVEKDGKLFGRGSSDDKGPVLCWFHAIRAAQKNGIDLPVNIKFCLEGMEESGSVGLPELLEREKDRFLAGVDFVCISDSYWLGTKKPCLTYGLRGICSFFVEVTGIKQDLHSGVFGGVIHEPLQDLMWVMSQLTTVDNRIKIPGLYEQVAPLSAAEEKTYDDIEFDVAEFRDSVGASKLPTEDKKTLLLRRWREPSLAFHGIEGAFYGPGEKTVIPSKVIGKFSIRIVPDMDPEQVNRLTVEYLNKVWAERGSPNVFKPRPGHSAKPWVVDVNDSNFLAGARAMKRVHGVEPDRIREGCSIPITLTFQELTGKSVLLLPIGAADDMAHSQNEKNNIWNYVEGVKTLLAYIMELGSA”, the “soluble on expression in E. coli” value was “not soluble”. For “MSLGAWPTAPITIVVPFAAGQTGDIIARLLGKELAERLKQPFVVDNKGGGGGRIGTAFVAKAKPDGYTLLMTSTGPYAIAPALYPRTMQYDPVRDFTGIAETATTPQIIAVSPKSGINTFADLVKQAKKSDMSYGSAGNGSTQHLTMELLKKELNFPLVHVPFKGSSESKTQVISGMIPVTSDSLPAIYTNIKSGQMKAIAVVDKQRSAYLPDVPTLAESGFPSLSTVAFFGLVAPKNTPKEVVNLLNKNLTEIYRTPDFQQKMKELAMTPPAEKTAEQFTAYLTEEVARWKKIVQDSNVKVEEGHHHHHH”, the “soluble on expression in E. coli” value was “soluble”. With “EDGRILKRFCQCEQRSLEQLMKDPLRPFVPAYYGMVLQDGQTFNQMEDLLADFEGPSIMDCKMGSRTYLEEELVKARERPRPRKDMYEKMVAVDPGAPTPEEHAQGAVTKPRYMQWRETMSSTSTLGFRIEGIKKADGTCNTNFKKTQALEQVTKVLEDFVDGDHVILQKYVACLEELREALEISPFFKTHEVVGSSLLFVHDHTGLAKVWMIDFGKTVALPDHQTLSHRLPWAEGNREDGYLWGLDNMICLLQGLAQS” the “soluble on expression in E. coli” value was “soluble”. For “MKAKAILLASVLLVGCQTSQNTGNVQQHAQSLSAAGQGEAGKFTSQARWMDDGTSIAPDQDLWAFIGDELKMGIPENSRIREQKQKYLRNKSYLHDVTLRAEPYMYWIAGQVKKRNMPMELVLLPIVESAFDPHATSGANAAGIWQIIPSTGRNYGLKQTRNYDARRDVVASTTAALDMMQRLNKMFDGDWLLTVAAYNSGEGRVMRAIKANKARGKPTDFWSLSLPRETKLYVPKMLALSEILKNSKRYGVRLPTTDESRALARVRLNSPVEMAQVADMAGMSISKLKTFNAGVKGSTLGVSGPQYVMVPKKHAEQLRESLASGEIDAVQSQLIADNTPLNSRSYKVRSGDTLSGIASRLGVSTKDLQQWNNLRGSRLKIGQSLTVGAGSSAQRLANNSDSITYRVRKGDSLSSIARRHGVNIKDVMRWNHDTDNLQPGDQLTLFVKDNSTPDSLEHHHHHH”, the “soluble on expression in E. coli” value was “soluble”. With “MQEKQLKTIQNKIASWIKEIESAFIDELFSKIGPSKMLRSKLMLALLNEKTDAILLDKAFNLCAIVEMIQTASLLHDDVIDKAAMRRKLPSINALFGNFNAVMLGDVFYSKAFFELSKMGESIAKSLSNAVLRLSRGEIEDVFVGGSFNSDKQKYWRILEDKTAHFIEASLKSMAILLNKDAKMYADFGLNFGMAFQIIDDLLDITQDAKTLGKPNFSDFKEGKTTLPYLLLYEKLNQRDQGLLISYFKQDSHEIIEWTKEKFKQYGTIEETLKIAQVYSKKALEAIKGENNLILEKLAQDVIYRTF” the “soluble on expression in E. coli” value was “not soluble”. In the case of “MDIKAQLKQIQDKGLYRELQPIQSVEKQYIYINDQSYINFTSNDYLGIGQLEYQPQNFLDFIKTYSIHLSSSRLVSGNSVVYQQLEQAISEHFNFEDALIFNSGYDANLAVFNIFKNNNVVIFSDQQNHASIIDGIKLSGLSKVIYQHLNYDDLESHLAQDTHLDVQKVIVSDSVFSTNGTKADINRLVHLKQRYNAILIIDASHSLGLNLFEYHADIDIVTSSLSKAWGAHGGIIFSSKDIKDLIINKGRSLIYSSSLPSYHLYFIQVSLQHVIEDTYRREKLNALSEYFNHQFMELFPNQPLSNTPIKNIVCDSLASAQAQYDMLFEHGIFVSYLRYPTVSQPTLRISLSYFHDTDDIDRLFNVMKQYDEGDSYV”, the “soluble on expression in E. coli” value is reported as “not soluble”. In the case of “MSSNALYTDLSGYYDLMCSDINYQQQSASIHRLHQFLGNNGKQHLDLACGTGPHVRHFIDLGYQCSGLDINQPMLDMAMRRCPEAQFNLQDMTAFYLEQPVDLITCFLYSIHYSAGIERLKSCIASVHRALNDGGIFCFNSVDKHCIDNRLSIKHFAEFEGYHFAFESGWHYNGQGEKQSLNLSIAKRQQPFTQLTDFEADTSLHQTELWQDQHTMVATSFAELQALLAPYFEVHIFEHDYEKIVPWDLSSGNALFVCVKILEHHHHHH”, the “soluble on expression in E. coli” value is reported as “not soluble”. For “MGSDKIHHHHHHMTDYFSYLGLQPSREELIQRFGLELDKLMTLDLNLTGRPSYLYSRERNGSGEASSTAFAQLLLDSLASKDVSILVTGWPVRSSIDVSIGEADGPIGAAAIARALHMTTGAVSLAMAPAPLAAQVAAAFRSAGATIIDFDAFERLSKGNERLFGVAIVGLDVDCDLSNYFAELLQNVKPKTVIAIEHYGFSAEGKPYHGTGNVVEPGTALTHPLFDQAMAEGLICGSCVDNPNEVGTSRLHDAGVKHPPMRNDFANLLVGSSANSAAFALCAALAGLSATPTAAFPGSLDEAGIAATLAHGAIDPFSGTADPSFGVDTIESPYHAWIADLMGRLAKGYCVAAATERHL”, the “soluble on expression in E. coli” value was “not soluble”. With “MRVNDVNLMRYIQQLSLERKAPTPGSFLFNTVSELAVQQKLRGQIEGYKTTLSQIYNGIGLLNTANAGLESISTALQRARELAVQASNATLTDVERSMIQKEYEEIMRGVKRIIQQTTYNEQRVLAGDVRNLVIQTGPNEGQNVTVNIPNLEETLSELFEVDLSTFEGAQRSLETIDQALENISQIRGNVGSWMNRLESSARSVMNSYTELFKTESLFEPSVAELLLESTKEDILRQTALTGILFRMENAGNVLKLLM” the “soluble on expression in E. coli” value was “not soluble”. In the case of “MGSDKIHHHHHHMYEKYIVEGLSDREIAYLIGCGKATVVRARQKHGIYREDVKMCDDYTLDNISEDLRTFIDGLLLGDACITEKGNLLITQNKRYDWLEYVKHRFQQFGLNVYFHCYKYKRRTSEVIADLYVLSTSRYELFRQLRERWYPDGIKRIPNDLVINDEGLAQWYLGDGSLTKQKNGYKLELSTHGFTLDENKFLQQKLKLLYGFDFRISKKHQYRYLRLFKSKQVHAFCSIVEPFIPPSYRNKVRCLHDYQWLKSWDVI”, the “soluble on expression in E. coli” value is reported as “not soluble”.
